From paper PMC10164562

What was measured:
[1] = molecular target: BrxL(E280Q) (Acinetobacter sp. 394); assay: cryo-EM structure; BrxL(E280Q), high molecular weight SEC fractions with co-purified host DNA, no added ATP; C1 refinement
[2] = molecular target: wild-type BrxL (Acinetobacter sp. 394); assay: cryo-EM structure; wild-type BrxL, high molecular weight SEC fractions, ~0.8 mg/ml, no added ATP, no bound DNA; C7 symmetry

Row | Substance | stoichiometry N [1] | stoichiometry N [2]
1 | BrxL(E280Q) (natural protein) | 12 | 
2 | wild-type BrxL (natural protein) |  | 14
